Data as given in the DeepSol protein solubility set.

Experiment: soluble on expression in E. coli; label from the status in PepcDB or PDB records

Sequence | soluble on expression in E. coli
MHPALKYMRQDRLPHIFCSGCGNGIVMNCFLKAIEELNIKPEDYIAVSGIGCSSRVPGYLYCDSLHTTHGRPIAFATGIKIARPDKHVVVFTGDGDLAAIGGNHFIHGCRRNIDLTVICINNNIYGMTGGQVSPTTPYGKKATTAPYGSIENTMDLCKMAIAAGATYVARWTTAHPIQLVRSIKKGIQKKGFAFIEVVSQCPTYYGRFNISRKPADMIKFLKENSIHLNKAKDMSEEELNGKIVVGEFLDIEKPEFVEELHKLIEKLKSE | not soluble
GMGGAALPDNGWPADRIDTESAHSARIYDYIIGGKDYYPADKEAGDAMSREWPALPVHMRANRDWMNRAVAHLAKEAGIRQFLDIGTGIPTSPNLHEIAQSVAPESRVVYVDNDPIVLTLSQGLLASTPEGRTAYVEADMLDPASILDAPELRDTLDLTRPVALTVIAIVHFVLDEDDAVGIVRRLLEPLPSGSYLAMSIGTAEFAPQEVGRVAREYAARNMPMRLRTHAEAEEFFEGLELVEPGIVQVHKWHPDAATADGIRDEDIAMYGAVARKP | soluble
MAHHHHHHMRFVFRRLLPASTAAVAAPPSLLSMRGAPSFVHPPAEEAIGKDVRATPANWVTAYVLPEVITEQEEKTLLDFSEPWFERLSYNDGHMDGLIHHYKEFYRSYAAITQAAETGSDAGLNMPHANLEVDLPLVSEALARAHDLAQTYLPCIPIDDRVHFLRLAGSGFIRAHVDESRNSTGIVAGLCLNAGRVMTLTHPAYPGERVELMLAPRCLYILIGRARYDWAHSVDWVGDDDEHIRRIQKSLAVEGTPIRFDGAETPYRRSDRTAIIFRGVSPMTLLVRRMRQRG | not soluble
APGAGPGVRRRQRSLEEIPRLGQLRFFFQLFVQGYALQLHQLQVLYKAKYGPMWMSYLGPQMHVNLASAPLLEQVMRQEGKYPVRNDMELWKEHRDQHDLTYGPFTTEGHHWYQLRQALNQRLLKPAEAALYTDAFNEVIDDFMTRLDQLRAESASGNQVSDMAQLFYYFALEAICYILFEKRIGCLQRSIPEDTVTFVRSIGLMFQNSLYATFLPKWTRPVLPFWKRYLDGWNAIFSFGKKLIDEKLEDMEAQLQAAGPDGIQVSGYLHFLLASGQLSPREAMGSLPELLMAGVDTTSNTLTWALYHLSKDPEIQEALHEEVVGVVPAGQVPQHKDFAHMPLLKAVLKETLRLYPVVPTNSRIIEKEIEVDGFLFPKNTQFVFCHYVVSRDPTAFSEPESFQPHRWLRNSQPATPRIQHPFGSVPFGYGVRACLGRRIAELEMQLLLARLIQKYKVVLAPETGELKSVARIVLVPNKKVGLQFLQRQC | not soluble
MSLTKALTFTILHNDMPTYPMKRDWLFWKEVTERTGVTLKPTSVPASDYDKKRSLLIGAGDAPLLIPKTYPGQETAFVSSGAILPVSEYVRLMPNFRAKVEKWGLEGDLDSIRQADGNYYVLPGLHEKVKSGYSLSFRTDVLKKHGLDLPTTWDQVYDVLKALKAAYPDVYPFSDRWGQPTPGGALLNYLGPAFGTKAGWSYANTAWDTKARKYVFTGATDEYRQMLEYLRKLVAEKLMDPESFTQSDDDAVRKLLSGKSFVISANPQELVQNYRYNLGKQVKGATIEMIPVPIGPTGEVIVGSRLENGLMVAGRAAEGDSFVAMMQFVDWLWYSDGGQEFAKYGVEGVTYTSSGAGRYKVADGISYMGSDPSAPKDLQKDYGFTNGEFAYGGSWALVSSSFSPDEKAFQDAMAGRKLLPVDPAHPLKADEQEQATLWDTPLKDHVTQNTLKFALGKRPMSEWDAYLAELKAKNMQRYIDLHNTAYERFKKEHEGHHHHHH | not soluble
MAHHHHHHMGSTDGECASSLRGHRMPSWILSHLETESKCLNDTPLVEEEKAPPSVPVTVLKKRFPQGLKILKKAPPKEKIVMPVEEECADSCRSSRPSVSVQSAVPGNGHRIARHTIRFRMSDWANLIEEKKDLVAQAVKEDISEGCGLDIGRILQLELKLTDILVVTFIVDHSHDDGGERPFHARLKVCKFPRTSSLYLLR | soluble
MTSENSESQDIWLTDEQQDVWLDVWTMRIGLPARLDAQLKEAAGVSHFEYFTMAQISMAPEHRVRMSELAELSDMTLSHLSRVVTRLEKAGWVKRVPDPDDGRATVAVLTDSGWEKVKATAPGHVKEVRRLVFDDLTPEELKVMGTAMKKIVNRLDMSNRLPRV | not soluble
MTIFRPGLLTTIQDLGRTGYLKYGVIVSGPMDEYAHRMANLLVGNDEKAALLEMTFIGPTIQFTSDQLIAMTGGDLSPTIDGHSVPMYRPVFVKKGAVLSFGRCKTGCRSYLAIGGGIDVPKVMNSRSTYLRAKIGGFQGRALVEGDELICGAPPEQTERLVKTCQKGIVHSFATTKWSVVSSQRSRDGAEKVVRVTVGSHYEQFSEASQHKFFSETFQVTSKSDRMGYRLKGPTLERLEEQELISEPISVGTIQVPADGNPIILMADRQTTGGYPRIAHVIAVDLPIIAQAKPGAAIRFQQASLKEAERLYIRRAREFNELKTSIYLQTRLEHHHHHH | not soluble
MLEEFLPSLIAHTPRQSARLIVADNGSTDDSVEFLRRQYPQVELILFPENYGFAEGYNRAIAQTECDCVVLLNSDVEVSEGWLDAPLALLQERSDVAAVQPKIRALRDKHAFEYAGAAGGYVDRWGYPFCRGRIFDAVETDTGQYDDIAEVFWASGAALFIRRQVYMAVGGLDPRFFAHQEEIDLCWRLHSRGWR | not soluble
MTYSGLNLNQDKATKPQTVQIVRQGEATLYWFLLIHYRFRRERRETQSLLMTRNTLKFIPFWSYKHITYAIFLYSRLPENSGQEYLTQRKAEKATKNNLHLSRLVSPTLGVQTIQSFRLPLFVYKINF | not soluble
FQVPMSNLLTVHQNLPALPVDATSDEVRKNLMDMFRDRQAFSEHTWKMLLSVCRSWAAWCKLNNRKWFPAEPEDVRDYLLYLQARGLAVKTIQQHLGQLNMLHRRSGLPRPSDSNAVSLVMRRIRKENVDAGERAKQALAFERTDFDQVRSLMENSDRCQDIRNLAFLGIAYNTLLRIAEIARIRVKDISRTDGGRMLIHIGRTKTLVSTAGVEKALSLGVTKLVERWISVSGVADDPNNYLFCRVRKNGVAAPSATSQLSTRALEGIFEATHRLIYGAKDDSGQRYLAWSGHSARVGAARDMARAGVSIPEIMQAGGWTNVNIVMNYIRNLDSETGAMVRLLEDGD | soluble
MPAPLSIVIPTLQAESSLPRLLEALIEGLPNGLIREVIVSDGGSQDATRAIAEAAGAQVLNGPPSRGGQLRHGCDAARGDWLLVLHADTLPDPGWAGVVADHIAAREDAACFRLAFRARGPGAAWVAGWANLRTRLFGLPYGDQGLLIRRRDYQTAGGYPDQLLMEDVHLVRALSRAPVLLPHRALTGAERYLRSGWLRRGARNLWTLMRYFAGTDPEALARAYRRLEHHHHHH | not soluble
RALDTEDIQKVFTKLPQSSAVTSDMRRTQELFVLMFLLRGLPFVDLAYLRKSDLHDNVITYRRRKTGRPLSVTLTPEAMAILKRYMNRDTSSPYLFPLLNSREGTKEAYHEYQLALRNFNRQLMLLGEMLGLGDKLSSYTARHTWATTAYYCEIHPGVISEAMGHSSITVTETYLKPFRNKKIDEANKKVVDFIKRSIPIAMC | not soluble
MAHHHHHHSLNDYTQQLQGKKDYLKTLFAGLDVPEWEVYESPDKHYRMRAEFRIWHEGGEMFYAMFEKGQKASGASMIRCDRFEAASEAVNRLMPELIAAAAQSPELKKRWYAVEFLSTLSGEMLVTMIYHKRLDAEWMQAAQALQQQLDISVIGRSRGQKIVLKQDYVTETLKVGNRDFRYRQIEGSFTQPNAAVCQKMLEWACRTAEGLGSDLLELYCGNGNFTLPLSRYFRQVLATEISKTSVSAAQWNIEANRIGNIKIARLSAEEFTEAYTGKREFKRLKDGGIALTDYAFSTIFVDPPRAGIDEETLKLVSQFDNIIYISCNPETLRANLDTLAETHAVERAALFDQFPFTHHIESGVLLKKKILEG | soluble
MTESEIHERFVDTYMHILKYVGDFVSVPTRPYKITFEAYTVMRMIATSEEPLTLVKIAKEQRVSRSAIARQINVLLDLKYIEQTTNTHDRRIKYLSLTPAGHKVEQEITTASEERFHQWVQVYGEKRASDTLRYINDAEQKATELGFSGFSGLHDKRGRHTEYSDPKTKN | not soluble
ASIPSSASVQLDSYNYDGSTFSGKIYVKNIAYSKKVTVVYADGSDNWNNNGNIIAASFSGPISGSNYEYWTFSASVKGIKEFYIKYEVSGKTYYDNNNSANYQVST | soluble
